Measurements reported in US20140298494A1, “ANIMAL MODEL OF AUTISM” (Beth Israel Deaconess Medical Center, Inc., priority 2011, published 2014).
Entries after “also recorded” stand apart in the source; their conditions may differ.

How the values were obtained:
recombinant Arc [1] = test system: recombinant Arc
non-NMDA receptor = assay: inhibition of minimal-stimulation single fiber EPSC amplitude by γ-DGG in layer 2/3 barrel cortex pyramidal neurons (brain slices); format: cell-based, mouse; conditions: γ-DGG 300 μM; Ube3a (2×) transgenic vs wild-type neurons; P=0.0127, n=7-8
Procedure: The vesicle glutamate content was estimated by the relative inhibition of mean single fiber EPSC amplitude by the fast off-rate, non-NMDA receptor blocker γ-DGG (300 μM). The higher the percentage inhibition by γ-DGG, the lower the concentration of synaptic glutamate. Detailed protocols are available in the Extended Experimental Procedures.
The vesicle glutamate content was estimated by the relative inhibition of mean single fiber EPSC amplitude by the fast off-rate, non-NMDA receptor blocker γ-DGG (300 μM). The higher the percentage inhibition by γ-DGG, the lower the concentration of synaptic glutamate (see ref. 21). To selectively stimulate a single fiber in layer 2/3 of the barrel cortex, minimal stimuli were delivered through ACSF-filled bipolar glass electrodes pulled from 2.0 mm OD dual barrel theta capillary glass (Warner Instruments). The tip of the stimulating electrodes is about 2 μm. To establish a minimal stimulation, we first sought for the highest stimulus that gave all failures. […] To acquire a reasonable number of EPSCs from 40-100 trials in both baseline and γ-DGG conditions at 0.3 Hz, we adjusted the stimulation intensity to give about 10% failures (WT: 9.7±2.4%, n=8; 1×: 9.7±3.4%, n=8; 2×: 11.6±4.6%, […]; F(2, 21)=0.106, P=0.90). Under this failure rate, the calculated quantal content was about 2. […]

recombinant Arc [2] = assay: in vitro target protein degradation (ubiquitination) assay with immunoprecipitated Ube3a-FLAG; format: biochemical; conditions: FLAG antibody immunoprecipitate from Tg cortical lysate; control Wt 1.26±0.04; P=0.01; n=3 independent in vitro assays
Procedure: Ube3a expression was confirmed by western blot of cortical lysates using both anti-FLAG M2 antibody (Sigma) and anti-Ube3a (BD Biosciences). The ubiquitin ligase activity of Ube3a was assayed by an in vitro target protein degradation assay. Ube3a was immunoprecipitated using anti-FLAG M2 antibodies and protein G magnetic beads (NEB) and eluted in non-denaturing conditions using a 3× FLAG peptide (Sigma). 1 μg of recombinant ARC (BD Biosciences) was added to 10 μl of immunoprecipitated Ube3a in the presence of 50 ng E1 and 100 ng UbcH7 enzymes and 4 μg HA-ubiquitin (Boston Bioproducts) as in (19). Western blots were probed with anti-ARC (Santa Cruz) and quantified using ImageJ (NIH). Detailed protocols are available in the Extended Experimental Procedures.
Cortical lysates were prepared in PBS with 1% TritonX-100 and protease inhibitors, incubated with 4 μg of anti-FLAG antibodies overnight, and with 50 μl of protein G magnetic beads (NEB) for immunoprecipitation (IP). Beads were washed 5× with PBS and Ube3a-FLAG was eluted with 3× FLAG peptide (Sigma) in 100 μl PBS, and IP success was confirmed by western blot. […]

Question: For “FLAG-tagged full length Ube3a (transgenic mouse Ube3a with C-terminal 3×FLAG tag, immunoprecipitated from cortical lysates of transgenic mice)”, which “in vitro target protein degradation assay (Arc on western blot probed with anti-ARC, quantified with ImageJ)” value (recombinant Arc [1]) is on record?
Answer: mean±SEM Wt: 1.26±0.04 vs. Tg: 0.58±0.16; P=0.01 by t test; n=3 independent in vitro assays

Question: For `N[C@H](CCC(=O)NCC(=O)O)C(=O)O` [γDGG, γ-D-glutamylglycine], which “Reduction of EPSC amplitude by γ-DGG” value (non-NMDA receptor) is on record?
Answer: reduce EPSC amplitude to a greater extent in Ube3a (2×) transgenic than in wild-type neurons; also recorded: increased γDGG inhibition in Ube3a transgenic mice

B1: transgenic Ube3a: full-length FLAG-tagged transgenic Ube3a ubiquitin ligase immunoprecipitated from transgenic mouse cortical lysate (protein, UniProt O08759 1-870, looked up)
chain: MATACKRSPGESQSEDIEASRMKRAAAKHLIERYYHQLTEGCGNEACTNEFCASCPTFLRMDNNAAAIKALELYKINAKLCDPHPSKKGASSAYLENSKGASNNSEIKMNKKEGKDFKDVIYLTEEKVYEIYEFCRESEDYSPLIRVIGRIFSSAEALVLSFRKVKQHTKEELKSLQEKDEDKDEDEKEKAACSAAAMEEDSEASSSRMGDSSQGDNNVQKLGPDDVTVDIDAIRRVYSSLLANEKLETAFLNALVYLSPNVECDLTYHNVYTRDPNYLNLFIIVMENSNLHSPEYLEMALPLFCKAMCKLPLEAQGKLIRLWSKYSADQIRRMMETFQQLITYKVISNEFNSRNLVNDDDAIVAASKCLKMVYYANVVGGDVDTNHNEEDDEEPIPESSELTLQELLGDERRNKKGPRVDPLETELGVKTLDCRKPLISFEEFINEPLNDVLEMDKDYTFFKVETENKFSFMTCPFILNAVTKNLGLYYDNRIRMYSERRITVLYSLVQGQQLNPYLRLKVRRDHIIDDALVRLEMIAMENPADLKKQLYVEFEGEQGVDEGGVSKEFFQLVVEEIFNPDIGMFTYDEATKLFWFNPSSFETEGQFTLIGIVLGLAIYNNCILDVHFPMVVYRKLMGKKGTFRDLGDSHPVLYQSLKDLLEYEGSVEDDMMITFQISQTDLFGNPMMYDLKENGDKIPITNENRKEFVNLYSDYILNKSVEKQFKAFRRGFHMVTNESPLKYLFRPEEIELLICGSRNLDFQALEETTEYDGGYTRESVVIREFWEIVHSFTDEQKRLFLQFTTGTDRAPVGGLGKLKMIIAKNGPDTERLPTSHTCFNVLLLPEYSSKEKLKERLLKAITYAKGFGML
modifications: full-length FLAG tag
notes: full-length FLAG-tagged transgenic Ube3a ubiquitin ligase immunoprecipitated from transgenic mouse cortical lysate
Question: With B1 as the molecule, how does the “Recombinant Arc level after in vitro degradation (western blot, mean±SEM)” value (recombinant Arc [2]) read?
Answer: 0.58±0.16
